Data from patent US20210347914A1 (BANYAN BIOMARKERS, published 2021).
Where a chain is given by its changes, count along the chain named.

B1: GFAP-7 (antibody, V domains shown)
VH: EVQLLQSGTVLARPGASVKMSCKASGYSFTSYWMHWIKQRPGQGLEWIGAIHPGNRDTSYNQKFKDKAKLTAVTSASTAYMELSSLTNEDSAVYFCTREDYWGQGTTLTVSS
VL: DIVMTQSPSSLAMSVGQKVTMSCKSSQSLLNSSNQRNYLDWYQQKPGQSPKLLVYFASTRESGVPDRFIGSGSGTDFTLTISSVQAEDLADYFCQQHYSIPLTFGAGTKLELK
notes: Same variable domains as GFAP-8; also called mouse anti-GFAP antibody GFAP-7
B2: GFAP-8 (antibody, V domains shown)
VH: B1 VH
VL: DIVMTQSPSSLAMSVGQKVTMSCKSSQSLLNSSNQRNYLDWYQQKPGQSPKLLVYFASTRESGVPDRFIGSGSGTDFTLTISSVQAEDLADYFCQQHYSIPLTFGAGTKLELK
notes: Same variable domains as GFAP-7; also called mouse anti-GFAP antibody GFAP-8
B3: GFAP-4 (antibody, V domains shown)
VH: B1 VH
VL: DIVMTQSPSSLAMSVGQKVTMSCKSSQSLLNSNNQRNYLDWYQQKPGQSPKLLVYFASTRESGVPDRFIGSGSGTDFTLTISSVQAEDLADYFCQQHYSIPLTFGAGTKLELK
notes: also called mouse anti-GFAP antibody GFAP-4
B4: GFAP-12 (antibody, V domains shown)
VH: QVQLQQSGAELMKPGASVKISCKATGYTFSNYWIEWVKQRPGHGLEWIGEILPGSGSTNYNEKFKGKATFTADTSSNTAYMQLSSLTSEDSAVYYCAIYYGNYAGAMDYWGQGTSVTVSS
VL: DIQMTQSPASLSASVGETVTITCRASENIYSYLAWYQQKQGKSPQLLVYNAKTLAEGVPSRFSGSGSGTQFSLKINSLQPEDFGSYYCQLHYGTPYTFGSGTKLEIK
notes: also called mouse anti-GFAP antibody GFAP-12
B5: GFAP-1 (antibody, V domains shown)
VH: EVHLQQSGTVLARPGASVKMSCKASGYSFTSYWMHWVKQRPGQGLEWIGAFYPENSDTNYNQKFKGKARLTAVTSANTAYMELNSLTNEDSAVYYCTRPLLFSAYFDFWGQGTTLTVSS
VL: DVLMTQTPLSLPVSLGDQASISCRSSQSIVHSYGNTYLEWYLQKPGLSPKLLIYKVSNRFSGVPDRFSGSGSGTDFTLTISRVEAEDLGVYYCFQGSHVPYTFGGGTKLEIK
notes: also called mouse anti-GFAP antibody GFAP-1
B6: GFAP-16 (antibody, V domains shown)
VH: QVQLQQSDAELVKPGASVKISCKASGYTFTDHTIHWVKQRPEQGLEWIGYIYPGDGSTKYNEKFKGKATLTADKSSSTVYMQLNSLTSEDSAVYFCARPAPYWNFDVWGAGTTVTVSS
VL: DIQMTQSPSSLSASLGGKVTITCKASQDIKKNIAWYQHKPGKGPRLLIWYTSTLQPGIPSRFSGSGSGRDYSFSISNLEPEDIATYYCLQYDHLRTFGGGTKLEIK
notes: also called mouse anti-GFAP antibody GFAP-16
B7: GFAP-15 (antibody, V domains shown)
VH: DVQLVESGGGLLEPGGSRKLSCAASGFTFSSFGMHWVRQAPEKGLEWVAYISSGSRTIFYADTVKGRFTISRDNPKNTLFLQMTSLRSGDTAMYYCVRGGYGSSFDYWGQGTTLTVSS
VL: DVVMTQTPLSLPVSLGDQASISCRSSQSLVYSNGNIYLHWYLQKPGQSPKLLIYKVSNRFSGVPDRFSGSGSGTDFTLKISRVEAEDLGVYFCSQSTHVPYTFGGGTKLEIK
notes: also called mouse anti-GFAP antibody GFAP-15
B8: GFAP-2 (antibody, V domains shown)
VH: DVQLVESGGGLVQPGGSRKLSCAASGFTFSSFGMHWVRQAPEKGLEWVAYISSGSSIIYYADTVKGRFTISRDNPKNTLFLQMTSLRSEDTAMYYCTGSDWGSFAYWGQGTLVTVSA
VL: B7 VL with I36T, S61F
notes: also called mouse anti-GFAP antibody GFAP-2
B9: GFAP-5 (antibody, V domains shown)
VH: EVQLVESGGGLVKPGGSLKLSCAASGFTFSAYGMHWVRQAPEKGLEWIAYISSGSSTIYYADTVKGRFTISRDNAKNTLFLQMTSLRSEDTAMYYCASSYALDYWGQGTSVTVSS
VL: B7 VL with I36T, G105S
notes: also called mouse anti-GFAP antibody GFAP-5
B10: GFAP-11 (antibody, V domains shown)
VH: QIQLVQSGPELKKPGETVKISCKASGYTFTNYGMNWVKQAPGEGLKWMGWINTNIGEPTYAEEFKGRFAFSLEASASTAYLQINNLKNEDTATYFCARWKNYGYFDYWGQGTTLTVSS
VL: QIVLTQSPAIMSASLGERVTMTCTASSSVSSSYLHWYQQKPGSSPKLWIYSTSNLASGVPARFSGSGSGTSYSLTISSLEAEDAATYYCHQYHRSPYTFGGGTKLEIK
notes: also called mouse anti-GFAP antibody GFAP-11
B11: GFAP-17 (antibody, V domains shown)
VH: EVKLEESGGGLVQPGGSMKLSCVASGFTFSYYWMSWVRQSPEKGLEWIAEIRLKSNIYATHYAASVKGRFTISRDDSKSSVYLQMNNLRAEDTGIYFCTRFGTGAMDYWGQGTSVTVSS
VL: DIVMSQSPSSLAVSVGEKVTMSCKSSQSLLYRTNQKNYLAWYQQKPGQSPKLLIYWASSRESGVPDRFSGSGSGTDFTLTISSVKAEDLAVYYCQQYYSYPWTFGGGTKLEIK
notes: also called mouse anti-GFAP antibody GFAP-17
B12: GFAP-13 (antibody, V domains shown)
VH: EVLLQQSGPELVKPGASVKMSCKTSGYTFANYIMHWVKQTPGQGLEWIGFINPYNDYTEYNEKFKGKATLTSDKSSSTAYMEFSGLTSEDSAVYYCSTATFAYWGQGTLVTVSA
VL: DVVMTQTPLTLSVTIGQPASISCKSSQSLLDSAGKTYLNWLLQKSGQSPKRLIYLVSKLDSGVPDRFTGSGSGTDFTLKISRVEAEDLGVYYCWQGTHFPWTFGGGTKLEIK
notes: also called mouse anti-GFAP antibody GFAP-13
B13: GFAP-14 (antibody, V domains shown)
VH: DVQLVESGGGSVQPGGSRKLSCAASGFTFSSFGMHWVRQAPEKGLEWVAYISSDSNTVYYADTVKGRFTISRDNPKNTLFLQMTSLRSEDTAMYYCARYAMDYWGQGTSVTVSS
VL: QIVLTQSPALMSASPGEKVTMTCSASSSVSYMYWYQQKPRSSPKPWIYLTSNLASGVPARFSGSGSGTSYSLTISSMEAEDAATYYCQQWSSNPPTFGAGTKLELK
notes: also called mouse anti-GFAP antibody GFAP-14
B14: GFAP-19 (antibody, V domains shown)
VH: EVQLVESGGGLVKPGGSPKLSCAASGFAFSSYDMSWVRQTPEKRLEWVAYISSGGGSTYYPDTMKGRFTISRDNAKNTLYLQMSSLKSEDTAMYYCARHYGTYLYYLDYWGQGTTLTVSS
VL: DIVLTQSPATLSVTPGDRVSLSCRASQNISDFLHWYQQKSHESPRLLIKYASQSISGIPSRFSGSGSGSDFTLSINSVEPEDVGVYYCQNGHSFPPTFGGGTKLEIK
notes: also called mouse anti-GFAP antibody GFAP-19
B15: GFAP-6 (antibody, V domains shown)
VH: EVQLQQSGAEFVKPGASVKLSCTASGFNIKDTDMHWVRQRPEQGLESIGLIDPAIGNTKYDPKFQGKATITADTSSNAAYLQLSSLTSEDTAVYYCARSDRYLAWFAYWGQGTLVTVSA
VL: B14 VL with L4M, N28S, E42G, A51S, S93T, P96Y
notes: also called mouse anti-GFAP antibody GFAP-6; HRP-labeled anti-GFAP antibody
B16: GFAP-10 (antibody, V domains shown)
VH: EVKLVESGGGLVKPGGSLKLSCAASGFTFSYYAMSWVRQTPEKRLEWVASISSGGTTYHPDSVKGRFTISRDNARNILYLQMSSLRSEDTAMYYCARGGHWYFDVWGAGTTVTVSS
VL: QIVLTQSPAIMSASPGEKVTMTCSASSSVSYMHWYQQKSGTSPKRWIYDTSKLASGVPARFSGSGSGTSYSLTISSMEAEDAATYYCQQWSTNPLTFGAGTKLDLK
notes: also called mouse anti-GFAP antibody GFAP-10
B17: GFAP-9 (antibody, V domains shown)
VH: DVQLQESGPGLVKPSQSLSLTCSVTGYSITSGFYWSWIRQFPGNKLEWMGYISYDGSNNYNPSLKNRISITRDTSKNQFFLKLNSVTTEDTATYYCARAYGYDGAWFAYWGQGTLVTVSA
VL: DIVMTQSQKFMSTSVGDRVSITCKASQNVRTAVAWYQQKPGQSPKALIYLASNRHTGVPDRFTGSGSGTDFTLTISNVQSEDLADYFCLQHWNNPYTFGGGTKLEIK
notes: also called mouse anti-GFAP antibody GFAP-9
B18: GFAP-3 (antibody, V domains shown)
VH: EVKLEESGGGLVQPGGSMKLSCVASGFTFTNYWMSWVRQSPEKGLEWVAQIRLKSDNYATHYAESVKGRFTISRDDSKSSVYLQMNNLRAEDTGIYYCTGGEFLSWFAYWGQGTLVTVSA
VL: DIVMSQSPSSLAVSAGEKVTMSCKSSQSLFNSRTRKNYLAWYQQKPGQSPKLLIYWASTRESGVPDRFTGSGSGTDFTLTISSVQAEDLAVYYCKQSYYLYTFGSGTKLEIK
notes: also called mouse anti-GFAP antibody GFAP-3
B19: GFAP-18 (antibody, V domains shown)
VH: EVILVESGGGLVKPGGSLKVSCAVSGFTFSNFAMSWVRQTPEKRLEWVASISSGGTTYYPDNVKGRFTISRDNARNIMYLQMSSLRSEDTAMYFCARGGLHYFGYWGQGTTLTVSS
VL: DIVMTQSHKFMSTSVGDRVSITCKASQDVNTAVAWYQQKPGQSLKLLIYSASYRYIGVPDRFTGSGSGTDFTFTINSVQAEDLAVYYCHQYYSTPLTFGTGTKLELK
notes: also called mouse anti-GFAP antibody GFAP-18

target: T1, Polyhistidine-tagged recombinant human GFAP expressed from E. coli (human, UniProt P14136 1-432); experiment: BLI (Octet QKe); His-tagged GFAP on anti-Penta-HIS sensor, antibody in solution
T1 construct: also called His-tagged GFAP; not shown: polyhistidine tag
T1 sequence (P14136 whole entry): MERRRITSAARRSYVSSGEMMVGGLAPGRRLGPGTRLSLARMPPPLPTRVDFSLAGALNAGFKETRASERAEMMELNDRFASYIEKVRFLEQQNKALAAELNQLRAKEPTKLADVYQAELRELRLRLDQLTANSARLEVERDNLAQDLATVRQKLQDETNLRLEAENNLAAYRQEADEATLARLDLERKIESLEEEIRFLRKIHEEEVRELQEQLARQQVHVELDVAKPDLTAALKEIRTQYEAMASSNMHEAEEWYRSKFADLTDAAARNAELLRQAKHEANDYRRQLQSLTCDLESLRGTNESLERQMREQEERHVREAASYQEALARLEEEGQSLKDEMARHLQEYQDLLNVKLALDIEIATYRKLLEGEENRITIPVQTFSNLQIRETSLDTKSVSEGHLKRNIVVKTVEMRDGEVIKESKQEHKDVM
Description: The rates of association (kₒₙ) and dissociation (koff) of the anti-GFAP antibodies were determined by bio-layer interferometry using an Octet QK^e instrument according to the manufacturer's instructions (ForteBio). See Tobias et al., Biomolecular Binding Kinetic Assays in the Octet Platform, Application Note 14, ForteBio, Div. of Pall Life Sciences, 2013. Polyhistidine-tagged recombinant human GFAP expressed from E. coli was used as the antigen. The antigen was bound at a concentration of 8.3 μg/ml to an anti-Penta-HIS(HIS1K) capture biosensor containing an anti-histidine antibody (ForteBio) for use with the Octet QK^e instrument.

| Kd | koff | kon | Binder |
| --- | --- | --- | --- |
| 0.856 nM | 5.8e-05 s⁻¹ | 67800 M⁻¹ s⁻¹ | B1 |
| 1.11 nM | 0.000133 s⁻¹ | 120000 M⁻¹ s⁻¹ | B2 |
| 2.93 nM | 0.000158 s⁻¹ | 53700 M⁻¹ s⁻¹ | B3 |
| 13.3 nM | 0.00024 s⁻¹ | 18000 M⁻¹ s⁻¹ | B4 |
| 0.0107 nM | 1.7e-06 s⁻¹ | 162000 M⁻¹ s⁻¹ | B5 |
| 0.273 nM | 4.7e-05 s⁻¹ | 173000 M⁻¹ s⁻¹ | B6 |
| 0.202 nM | 0.000231 s⁻¹ | 1.15e+06 M⁻¹ s⁻¹ | B7 |
| 0.0557 nM | 3.3e-05 s⁻¹ | 593000 M⁻¹ s⁻¹ | B8 |
| 5.36 nM | 0.000107 s⁻¹ | 20000 M⁻¹ s⁻¹ | B9 |
| 0.396 nM | 0.000125 s⁻¹ | 315000 M⁻¹ s⁻¹ | B10 |
| 0.208 nM | 1.8e-05 s⁻¹ | 86600 M⁻¹ s⁻¹ | B11 |
| 0.6 nM | 0.000194 s⁻¹ | 324000 M⁻¹ s⁻¹ | B12 |
| 0.28 nM | 8.4e-05 s⁻¹ | 299000 M⁻¹ s⁻¹ | B13 |
| 0.423 nM | 6.4e-05 s⁻¹ | 151000 M⁻¹ s⁻¹ | B14 |
| 1.07 nM | 0.000124 s⁻¹ | 116000 M⁻¹ s⁻¹ | B15 |
| < 0.001 nM | 1e-07 s⁻¹ | 53300 M⁻¹ s⁻¹ | B16 |
| 18 nM | 0.000701 s⁻¹ | 39000 M⁻¹ s⁻¹ | B17 |
| 12 nM | 0.000698 s⁻¹ | 58000 M⁻¹ s⁻¹ | B18 |
| 0.0737 nM | 2.5e-05 s⁻¹ | 344000 M⁻¹ s⁻¹ | B19 |
